Reference: paper PMC12442453, “An asymmetric tetrabody is a potent and efficacious agonist of the erythropoietin receptor in vitro and in vivo” (Protein Science : A Publication of the Protein Society, 2025)
Numbering of substitutions follows the chain as printed. Values belong to the binder of their own block, whether it stands above or below them.

How the values were obtained:
[1] = biological target: human EPOR, endogenous on TF-1 cells (Homo sapiens (TF-1 cells), UniProt P19235); experiment: cell-based or functional assay
human EPOR, endogenous on TF-1 cells, sequence (P19235 25-508): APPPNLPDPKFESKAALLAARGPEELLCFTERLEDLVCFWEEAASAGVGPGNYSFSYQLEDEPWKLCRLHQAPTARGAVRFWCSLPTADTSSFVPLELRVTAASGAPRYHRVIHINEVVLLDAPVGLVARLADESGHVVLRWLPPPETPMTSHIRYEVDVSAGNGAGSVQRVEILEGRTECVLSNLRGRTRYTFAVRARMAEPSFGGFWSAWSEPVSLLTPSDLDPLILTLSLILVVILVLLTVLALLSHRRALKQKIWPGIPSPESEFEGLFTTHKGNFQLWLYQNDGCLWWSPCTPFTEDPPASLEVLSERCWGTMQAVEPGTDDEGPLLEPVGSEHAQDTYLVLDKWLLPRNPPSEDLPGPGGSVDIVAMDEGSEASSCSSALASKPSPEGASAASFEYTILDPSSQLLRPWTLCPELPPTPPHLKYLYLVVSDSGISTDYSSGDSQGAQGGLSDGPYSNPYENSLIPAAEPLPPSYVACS

His-tagged ECD of CD131 = biological target: T1, His-tagged ECD of CD131 (Homo sapiens (assumed), UniProt P32927); experiment: ELISA; His-tagged ECDs of EPOR, CD131 or EPHB4 tested against Db-Fc protein; settings: both partners purified
T1 construct: β-common cytokine receptor (β-CR, CD131), ectodomain; also called β-common cytokine receptor; β-CR
T1 sequence (P32927 17-443): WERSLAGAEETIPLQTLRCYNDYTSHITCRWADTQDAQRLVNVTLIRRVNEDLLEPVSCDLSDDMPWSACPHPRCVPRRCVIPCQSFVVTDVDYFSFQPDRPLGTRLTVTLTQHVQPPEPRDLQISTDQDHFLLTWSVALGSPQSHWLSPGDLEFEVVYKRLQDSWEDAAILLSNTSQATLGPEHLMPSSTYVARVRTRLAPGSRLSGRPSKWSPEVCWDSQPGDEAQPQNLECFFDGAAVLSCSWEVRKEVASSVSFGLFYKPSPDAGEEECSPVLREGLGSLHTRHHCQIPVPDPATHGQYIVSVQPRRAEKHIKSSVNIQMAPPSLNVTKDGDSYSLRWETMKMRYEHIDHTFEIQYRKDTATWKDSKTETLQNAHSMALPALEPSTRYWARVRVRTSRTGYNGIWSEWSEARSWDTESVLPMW

His-tagged ECD of EPHB4 = biological target: T2, His-tagged ECD of EPHB4 (Homo sapiens (assumed), UniProt P54760); experiment: as above; settings: both partners purified
T2 construct: receptor tyrosine kinase EPHB4, ectodomain
T2 sequence (P54760 16-539): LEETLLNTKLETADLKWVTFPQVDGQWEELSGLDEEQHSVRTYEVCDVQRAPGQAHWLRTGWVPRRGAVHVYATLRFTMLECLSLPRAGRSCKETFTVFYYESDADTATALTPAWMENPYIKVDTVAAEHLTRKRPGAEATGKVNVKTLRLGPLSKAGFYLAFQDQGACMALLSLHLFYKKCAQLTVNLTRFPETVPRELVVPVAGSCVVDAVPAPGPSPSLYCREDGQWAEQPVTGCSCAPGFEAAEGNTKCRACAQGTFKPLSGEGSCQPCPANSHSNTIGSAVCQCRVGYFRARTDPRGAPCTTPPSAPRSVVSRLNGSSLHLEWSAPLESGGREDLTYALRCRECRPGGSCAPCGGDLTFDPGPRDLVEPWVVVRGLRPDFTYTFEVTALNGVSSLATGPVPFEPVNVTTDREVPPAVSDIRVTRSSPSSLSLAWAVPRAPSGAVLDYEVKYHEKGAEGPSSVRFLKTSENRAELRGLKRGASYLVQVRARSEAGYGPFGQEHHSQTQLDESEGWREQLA

[2] = biological target: T3, human EPOR ectodomain (ECD) fused to a human Fc domain (EPOR-Fc) (human, UniProt P19235); experiment: BLI; results and legends: EPOR-Fc immobilised, Db-Fc in solution, 600 s association, 600 s dissociation, global 1:1 fit; methods: Abs captured on anti-human Fc sensors, His-EPOR in solution in 3-fold dilutions from 100 nM, 25°C, PBS 0.05% Tween 20; settings: both partners purified
T3 construct: erythropoietin receptor (EPOR), human, ectodomain; Results and legends name EPOR-Fc as the immobilised protein of the ELISA and BLI experiments; the methods describe His-EPOR instead; also called human EPOR-Fc
T3 sequence (P19235 25-250): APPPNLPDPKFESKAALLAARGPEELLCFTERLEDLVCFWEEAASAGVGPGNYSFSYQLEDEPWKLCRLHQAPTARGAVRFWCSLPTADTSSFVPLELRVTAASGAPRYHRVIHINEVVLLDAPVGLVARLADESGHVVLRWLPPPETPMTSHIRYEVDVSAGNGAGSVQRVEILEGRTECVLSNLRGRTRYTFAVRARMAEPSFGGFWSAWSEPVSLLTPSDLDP

[3] = biological target: T3, human EPOR ectodomain (ECD) fused to a …; experiment: ELISA; EPOR-Fc (human or mouse) immobilised by results and legends, Db-Fc or VL–VH protein in solution (single point and serial dilutions), 1 h room temperature, PBST, anti-Fc-HRP; apparent affinities; the methods name His-EPOR as the coated protein; settings: both partners purified

B1: Db-Fc 1 (Fc fusion)
VH: EVQLVESGGGLVQPGGSLRLSCAASGFNLYSYYIHWVRQAPGKGLEWVASISPYYSYTYYADSVKGRFTISADTSKNTAYLQMNSLRAEDTAVYYCARHGYGAMDYWGQGTLVTVSS
VL: DIQMTQSPSSLSASVGDRVTITCRASQSVSSAVAWYQQKPGKAPKLLIYSASSLYSGVPSRFSGSRSGTDFTLTISSLQPEDFATYYCQQSSYSLITFGQGTKVEIK
notes: VL domain of clone 1 (human framework of the Db library); Gly5 linker between VL and VH; VH domain of clone 1; IMGT numbering, heavy chain; Diabody-Fc fusion (VL-Gly5-VH-Fc); Protein-A purified preparation: mainly the dimeric Db-Fc, with a minor earlier-eluting SEC peak (putative Tb-Fc2); also called Db 1; VL–VH 1; source: Expi293, transient expression, purified (rProtein-A); not shown: Fc, …
UT-7/Epo cell proliferation (ATP/luciferase luminescence), EC50 [1]: 0.2 nM
binding result (His-tagged ECD of CD131): no binding
binding result (His-tagged ECD of EPHB4): no binding
Kd [2]: 1.5 nM
EC50 [3]: 1.5 nM

B2: Db-Fc 1.2 (Fc fusion)
VH: B1 VH with Y30R, I34M, S52A, Y55H, S56G, M104L
VL: B1 VL with Y93N, S94F
notes: VL domain of variant 1.2; Gly5 linker between VL and VH; VH domain of variant 1.2; Diabody-Fc fusion; nearly homogeneous Db-Fc peak by SEC; In vivo used both as unfractionated mixture and as the Db-Fc fraction from preparative SEC; also called variant 1.2; Db-Fcmix 1.2; source: Expi293, transient expression, purified (rProtein-A); not shown: Fc, C-terminal, kept
Kd [2]: 1.8 nM

B5: Db-Fc 1.1 (Fc fusion)
VH: B1 VH with Y30R, I34M
VL: B1 VL
notes: VL domain of variant 1.1; Gly5 linker between VL and VH; VH domain of variant 1.1; Diabody-Fc fusion; >99% eluted as the Db-Fc form by SEC; Called Db-Fcmix 1.1 where not fractionated by preparative SEC; also called variant 1.1; Db-Fcmix 1.1; source: Expi293, transient expression, purified (rProtein-A); not shown: Fc, C-terminal, kept
Kd [2]: 5 nM

Now from value to binder:

UT-7/Epo cell proliferation (ATP/luciferase luminescence), EC50 [1]: 0.4 nM
binding result (His-tagged ECD of CD131): no binding
binding result (His-tagged ECD of EPHB4): no binding
Kd [2]: 5.1 nM
EC50 [3]: 0.6 nM
B3: Db-Fc 2 (Fc fusion)
VH: B1 VH with Y30S, G100S, G102A, M104L
VL: DIQMTQSPSSLSASVGDRVTITCRASQSVSSAVAWYQQKPGKAPKLLIYSASSLYSGVPSRFSGSRSGTDFTLTISSLQPEDFATYYCQQAYWPITFGQGTKVEIK
notes: VL domain of clone 2 (human framework of the Db library); Gly5 linker between VL and VH; VH domain of clone 2; Diabody-Fc fusion (VL-Gly5-VH-Fc); Protein-A purified preparation: mainly the dimeric Db-Fc, with a minor earlier-eluting SEC peak; also called Db 2; VL–VH 2; source: Expi293, transient expression, purified (rProtein-A); not shown: Fc, C-terminal, kept

binding result [2]: binds
B4: Db-Fc 1.3 (Fc fusion)
VH: B1 VH with Y30R, I34M, Y54H, S56G, G102S
VL: B1 VL with Y93D, I96F
notes: VL domain of variant 1.3; derived from the library on Db 1.1 (PDB 9NWU); Gly5 linker between VL and VH; VH domain of variant 1.3; the fraction is named in the readout of each functional row; also called variant 1.3; VL–VH 1.3; source: Expi293, transient expression, purified (rProtein-A); fractions by preparative SEC; not shown: Fc, C-terminal, kept
